In patent US20230406950A1 (LYVGEN BIOPHARMA, published 2023):
Residue numbers refer to the chain shown, from its start. Each block holds one binder with its values, some of them ahead of it.

Legend:
[1] = target: T1, human GITR expressed on cells (human, UniProt Q9Y5U5 26-241); assay: flow cytometry (FACS), MFI, CHO cells expressing human GITR
T1 construct: whole, on cells; also called TNFRSF18; CD357
T1 sequence (looked up): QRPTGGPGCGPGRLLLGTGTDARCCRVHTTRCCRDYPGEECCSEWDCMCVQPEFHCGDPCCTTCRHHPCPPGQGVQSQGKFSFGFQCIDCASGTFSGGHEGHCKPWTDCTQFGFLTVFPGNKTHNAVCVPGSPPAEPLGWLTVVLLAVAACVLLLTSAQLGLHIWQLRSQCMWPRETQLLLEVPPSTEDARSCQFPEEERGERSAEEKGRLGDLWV
Experimental: FACS analysis was performed to evaluate the binding properties of exemplary anti-GITR humanized antibodies. Briefly, CHO cells over-expressing human GITR were harvested using trypsin-EDTA partial digestion followed by centrifugation at 1000 g for 3 minutes. The cells were re-suspended in cold PBS-BSA (2%) at 2×10⁶/mL and aliquoted to 100 μL/tube. The anti-GITR humanized antibodies were diluted in PBS-BSA (final concentrations were 0.01, 0.1, 1 and 10 μg/mL) and 50 μL of each was added to the CHO-GITR cells. The cell solutions were mixed and incubated at 4° C. in the dark for 2 hours. The cells were then washed with PBS-BSA twice. Secondary antibody conjugates (goat F(ab′)2 anti-human IgG—Fc (PE), pre-adsorbed, Abcam #ab98596) at 1/500 dilution and 100 μL/well was added and the cells were mixed and incubated 4° C. in dark for 1 hour. The cells were then washed twice with PBS-BSA, followed by fixation in 2% PFA/PBS, and were then subjected to FACS analysis.
[0270] (b) Agonistic Activity for GITR

[2] = target: T2, human PD-L1 expressed on cells (human, UniProt Q9NZQ7 19-290); assay: flow cytometry (FACS), MFI, CHO cells expressing human PD-L1
T2 construct: whole, on cells; also called human PD-L1 expressed on CHO cells; Raji-PD-L1 cells
T2 sequence (Q9NZQ7 19-290): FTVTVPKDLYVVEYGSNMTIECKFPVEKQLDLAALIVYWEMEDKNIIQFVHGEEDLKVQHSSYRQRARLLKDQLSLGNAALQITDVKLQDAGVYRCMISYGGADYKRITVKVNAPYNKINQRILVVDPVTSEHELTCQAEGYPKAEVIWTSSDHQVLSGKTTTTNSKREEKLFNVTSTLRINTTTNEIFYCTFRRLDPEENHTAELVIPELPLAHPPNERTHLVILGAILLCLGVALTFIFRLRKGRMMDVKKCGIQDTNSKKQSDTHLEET
Experimental: Exemplary anti-PD-1/CD137 bi-specific antibodies were analyzed by FACS for their binding properties to human PD-1 and/or human CD137 expressed on CHO cells. Briefly, cultured cells were harvested, counted and cell viability was evaluated using the Trypan Blue exclusion method. Viable cells were then adjusted to 2×10⁶ cells per mL in PBS containing 2% BSA. 100 μL of this cell suspension were further aliquoted per well into a V-bottom 96-well plate. […] After incubation for 2 hours at 4° C., cells were centrifuged (3 min, 1000× g), washed with 250 μL/well BSA-containing FACS Stain Buffer, resuspended and incubated for an additional 1 hour at 4° C. with 100 μL/well fluorochrome-conjugated anti-IgG antibody for detection of the bisepecific antibody. Cells were then washed with 250 μL/well BSA-containing FACS Stain Buffer, resuspended in 100 μL/well FACS Stain Buffer, acquired and analyzed using a FACS machine. Binding of the bispecific antibodies to human PD-1 or human CD137 expressing CHO cells were evaluated and the mean fluorescence intensity is plotted in histograms or dot plots.
Exemplary anti-PD-L1/CD137 bi-specific antibodies were analyzed by FACS for their binding properties to human PD-L1 or human CD137 expressed on CHO cells, following the procedures disclosed in Examples 1 above.

[3] = target: T3, ECD portion of human CD137 protein (mouse IgG2a Fc tag) (human, UniProt Q07011 24-186); assay: bridging ELISA: human CD137 ECD (mouse IgG2a Fc tag) coated, antibody titrated, then human PD-L1 ECD (His tag), HRP anti-His detection; A450-A620
T3 construct: extracellular domain; also called recombinant human CD137; not shown: mouse IgG2a Fc tag
Experimental: (§1) Exemplary anti-PD-L1/CD137 bi-specific antibodies were analyzed by ELISA for their simultaneous binding to recombinant human PD-L1 and human CD137. Briefly, the ECD portion of human CD137 protein (mouse IgG2a Fc tag) was diluted and coated onto an ELISA plate with a volume of 100 μL/well by incubation at 4° C. overnight. The next day, the plate was blocked with PBST-BSA buffer, then serially diluted samples of anti-PD-L1/CD137 bi-specific antibodies were pipetted into appropriate wells at 50 μL/well, and the plate was incubated for 1 h followed by Washing. Human PD-L1 ECD fragment (His tag) was added into the plate at 50 μL/well. After 1-hour incubation at room temperature, HRP-conjugated anti-His tag antibody was added into the plate at 100 μL/well and […]. The plate was incubated for 1 hour at room temperature followed by washing. TMB substrate solution was added at 100 μL/well and the color development was stopped by adding 100 uL/well Stop Solution (2N H₂SO₄). Absorbance at 450 nm and 620 nm was read by Tecan F200 Pro plate reader. GraphPad 7.0, “[Agonist] vs. response—Variable slope (four parameters)” was used to plot the binding data and calculate binding EC50 values.

[4] = target: T4, Human PD-L1 ECD fragment (His tag) (human, UniProt Q9NZQ7 19-238); assay: as above
T4 construct: extracellular domain; also called recombinant human PD-L1; not shown: His tag
T4 sequence (Q9NZQ7 19-238): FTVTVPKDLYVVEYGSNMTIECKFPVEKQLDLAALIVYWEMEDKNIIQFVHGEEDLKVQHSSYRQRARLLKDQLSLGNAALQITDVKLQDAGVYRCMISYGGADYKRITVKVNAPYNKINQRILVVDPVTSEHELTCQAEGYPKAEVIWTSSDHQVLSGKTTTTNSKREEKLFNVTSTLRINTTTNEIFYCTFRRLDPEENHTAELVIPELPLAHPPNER
Experimental: as §1

binding result [1]: binds
B1: TM392 (antibody, human IgG4 S228P, kappa, V domains shown)
VH: QVQLKESGPGLVQPSETLSLTCNVSGFSLTSYNVHWVRQPPGKGLEWLGVIWSGVRTDYNSVLKSRLSIRWDSSKNQVFLKMNSLQSEDTATYYCARGTYDANYHDVMDAWGQGASVTVSS
VL: DTVLTQSPALAVSPGERVTISCRASKSVRTGMHWYQQKPGQQPKLLVYGASNLESGVPARFSGSGSGTDFTLTIDPVEADDIATYFCHQSWNHFTFGSGTKLEIKR
notes: Chimeric anti-GITR antibody; also called chimeric antibody TM392 (LYV392 with human constant regions)

binding result [1]: binds
B2: TM396 (antibody, human IgG4 S228P, kappa, V domains shown)
VH: B1 VH with N23T, S65P, R70S, W71R, Q77K, K81N, A102D
VL: B1 VL with V47I, A59V, I82T, H88Q
notes: Chimeric anti-GITR antibody from LYV396; also called chimeric antibody TM396 (IgG4)

binding result [2]: binds | EC50 (read off the curve) [3]: ~0.1 µg/mL | binding result [4]: binds
B3: Ly346 (bispecific antibody, human IgG1, kappa)
heavy: QVQLVQSGAEVKKPGASVKVSCKASGYTFTDFWMSWVRQAPGQGLEWMGQIYPNTGTTHSNEKFKGRVTMTRDTSTSTVYMELSSLRSEDTAVYYCARSYHISTTPNWFAYWGQGTLVTVSSASTKGPSVFPLAPSSKSTSGGTAALGCLVKDYFPEPVTVSWNSGALTSGVHTFPAVLQSSGLYSLSSVVTVPSSSLGTQTYICNVNHKPSNTKVDKKVEPKSCDKTHTCPPCPAPELLGPSVFLFPPKPKDTLMISRTPEVTCVVVDVSHEDPEVKFNWYVDGVEVHNAKTKPREEQYNSTYRVVSVLTVLHQDWLNGKEYKCKVSNKALPAPIEKTISKAKGQPREPQVYTLPPSREEMTKNQVSLTCLVKGFYPSDIAVEWESNGQPENNYKTTPPVLDSDGSFFLYSKLTVDKSRWQQGNVFSCSVMHEALHNHYTQKSLSLSPGGGGGSGGGGSGGGGSGGGGSQVQLVQSGAEVKKPGASVKVSCKASGYTFAGFEMHWVRQAPGQGLEWMGAIDPKTGGTDYNQKFKDRVTMTRDTSISTAYMELSRLRSDDTAVYYCARDLGYFDVWGQGTLVTVSSGGGGSGGGGSGGGGSGGGGSDIQMTQSPSSLSASVGDRVTITCRASQDIRSNLNWYQQKPGGAVKLLIYYTSRLHSGVPSRFSGSGSGTDYTLTISSLQPEDFATYFCQQSEKLPRTFGGGTKVEIR
light: DIQMTQSPSSLSASVGDRVTITCKASQNVYKKLEWYQQKPGKVPKVLIYHTNILQTGVPSRFSGSGSGTDYTLTISSLQPEDVATYYCYQWNSGPTFGGGTKVEIKRTVAAPSVFIFPPSDEQLKSGTASVVCLLNNFYPREAKVQWKVDNALQSGNSQESVTEQDSKDSTYSLSSTLTLSKADYEKHKVYACEVTHQGLSSPVTKSFNRGEC
notes: Anti-PD-L1/CD137: Ly076 heavy chain fused to Ly1630 scFv (VH-VL); Ly076 light chain

binding result [2]: binds | EC50 (read off the curve) [3]: ~0.1 µg/mL | binding result [4]: binds
B4: Ly299 (bispecific antibody, human IgG1, kappa)
heavy: QVQLVQSGAEVKKPGASVKVSCKASGYTFTDFWMSWVRQAPGQGLEWMGQIYPNTGTTHSNEKFKGRVTMTRDTSTSTVYMELSSLRSEDTAVYYCARSYHISTTPNWFAYWGQGTLVTVSSASTKGPSVFPLAPSSKSTSGGTAALGCLVKDYFPEPVTVSWNSGALTSGVHTFPAVLQSSGLYSLSSVVTVPSSSLGTQTYICNVNHKPSNTKVDKKVEPKSCDKTHTCPPCPAPELLGPSVFLFPPKPKDTLMISRTPEVTCVVVDVSHEDPEVKFNWYVDGVEVHNAKTKPREEQYNSTYRVVSVLTVLHQDWLNGKEYKCKVSNKALPAPIEKTISKAKGQPREPQVYTLPPSREEMTKNQVSLTCLVKGFYPSDIAVEWESNGQPENNYKTTPPVLDSDGSFFLYSKLTVDKSRWQQGNVFSCSVMHEALHNHYTQKSLSLSPGGGGGSGGGGSGGGGSGGGGSDIQMTQSPSSLSASVGDRVTITCRASQDIRSNLNWYQQKPGGAVKLLIYYTSRLHSGVPSRFSGSGSGTDYTLTISSLQPEDFATYFCQQSEKLPRTFGGGTKVEIRGGGGSGGGGSGGGGSGGGGSQVQLVQSGAEVKKPGASVKVSCKASGYTFAGFEMHWVRQAPGQGLEWMGAIDPKTGGTDYNQKFKDRVTMTRDTSISTAYMELSRLRSDDTAVYYCARDLGYFDVWGQGTLVTVSS
light: B3 light
notes: Anti-PD-L1/CD137: Ly076 heavy chain fused to Ly1630 scFv (VL-VH); Ly076 light chain

binding result [2]: binds | EC50 (read off the curve) [3]: ~0.2 µg/mL | binding result [4]: binds
B5: Ly347 (bispecific antibody, human IgG1, kappa)
heavy: QVQLVQSGAEVKKPGASVKVSCKASGYTFTDFWMSWVRQAPGQGLEWMGQIYPNTGTTHSNEKFKGRVTMTRDTSTSTVYMELSSLRSEDTAVYYCARSYHISTTPNWFAYWGQGTLVTVSSASTKGPSVFPLAPSSKSTSGGTAALGCLVKDYFPEPVTVSWNSGALTSGVHTFPAVLQSSGLYSLSSVVTVPSSSLGTQTYICNVNHKPSNTKVDKKVEPKSCDKTHTCPPCPAPELLGPSVFLFPPKPKDTLMISRTPEVTCVVVDVSHEDPEVKFNWYVDGVEVHNAKTKPREEQYNSTYRVVSVLTVLHQDWLNGKEYKCKVSNKALPAPIEKTISKAKGQPREPQVYTLPPSREEMTKNQVSLTCLVKGFYPSDIAVEWESNGQPENNYKTTPPVLDSDGSFFLYSKLTVDKSRWQQGNVFSCSVMHEALHNHYTQKSLSLSPG
light: DIQMTQSPSSLSASVGDRVTITCKASQNVYKKLEWYQQKPGKVPKVLIYHTNILQTGVPSRFSGSGSGTDYTLTISSLQPEDVATYYCYQWNSGPTFGGGTKVEIKRTVAAPSVFIFPPSDEQLKSGTASVVCLLNNFYPREAKVQWKVDNALQSGNSQESVTEQDSKDSTYSLSSTLTLSKADYEKHKVYACEVTHQGLSSPVTKSFNRGECGGGGSGGGGSGGGGSGGGGSQVQLVQSGAEVKKPGASVKVSCKASGYTFAGFEMHWVRQAPGQGLEWMGAIDPKTGGTDYNQKFKDRVTMTRDTSISTAYMELSRLRSDDTAVYYCARDLGYFDVWGQGTLVTVSSGGGGSGGGGSGGGGSGGGGSDIQMTQSPSSLSASVGDRVTITCRASQDIRSNLNWYQQKPGGAVKLLIYYTSRLHSGVPSRFSGSGSGTDYTLTISSLQPEDFATYFCQQSEKLPRTFGGGTKVEIR
notes: Anti-PD-L1/CD137: Ly076 heavy chain; Ly076 light chain fused to Ly1630 scFv (VH-VL)

binding result [2]: binds | EC50 (read off the curve) [3]: ~0.1 µg/mL | binding result [4]: binds
B6: Ly348 (bispecific antibody, human IgG1, kappa)
heavy: B5 heavy
light: DIQMTQSPSSLSASVGDRVTITCKASQNVYKKLEWYQQKPGKVPKVLIYHTNILQTGVPSRFSGSGSGTDYTLTISSLQPEDVATYYCYQWNSGPTFGGGTKVEIKRTVAAPSVFIFPPSDEQLKSGTASVVCLLNNFYPREAKVQWKVDNALQSGNSQESVTEQDSKDSTYSLSSTLTLSKADYEKHKVYACEVTHQGLSSPVTKSFNRGECGGGGSGGGGSGGGGSGGGGSDIQMTQSPSSLSASVGDRVTITCRASQDIRSNLNWYQQKPGGAVKLLIYYTSRLHSGVPSRFSGSGSGTDYTLTISSLQPEDFATYFCQQSEKLPRTFGGGTKVEIRGGGGSGGGGSGGGGSGGGGSQVQLVQSGAEVKKPGASVKVSCKASGYTFAGFEMHWVRQAPGQGLEWMGAIDPKTGGTDYNQKFKDRVTMTRDTSISTAYMELSRLRSDDTAVYYCARDLGYFDVWGQGTLVTVSS
notes: Anti-PD-L1/CD137: Ly076 heavy chain; Ly076 light chain fused to Ly1630 scFv (VL-VH)
